From article PMC2953525, “Subtle Alterations in PCNA-Partner Interactions Severely Impair DNA Replication and Repair” (PLoS Biology, 2010)
Where no end group is shown, it is not given here.

Experiments:
[1] = biological target: T1, pol30-Msh6E2 (yeast, UniProt P15873 1-258, IDCL DIDADFLKIEEL to DYDRDMLKISEL); experiment: two-hybrid; quantitative Y2H: generation time of the YRG2 strains in liquid SC-Leu-Trp-His, given relative to cells expressing WT PCNA; average of at least 3 experiments; conditions: partners not purified
T1 construct: PCNA (POL30), yeast; source: yeast two-hybrid fusion (pAD-GAL4, strain YRG2)
T1 sequence: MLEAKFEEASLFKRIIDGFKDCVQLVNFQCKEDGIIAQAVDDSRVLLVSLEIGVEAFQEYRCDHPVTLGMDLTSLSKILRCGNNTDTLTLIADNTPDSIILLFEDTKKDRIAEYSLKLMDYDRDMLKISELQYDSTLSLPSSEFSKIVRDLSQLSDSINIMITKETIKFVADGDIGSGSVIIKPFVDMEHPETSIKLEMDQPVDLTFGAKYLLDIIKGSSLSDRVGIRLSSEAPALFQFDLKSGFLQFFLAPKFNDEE

[2] = biological target: T2, pol30-Msh6E6 (yeast, UniProt P15873 1-258, IDCL DIDADFLKIEEL to DYDKDLLKIIEL); experiment: as above; conditions: partners not purified
T2 construct: PCNA (POL30), yeast; source: yeast two-hybrid fusion (pAD-GAL4, strain YRG2)
T2 sequence: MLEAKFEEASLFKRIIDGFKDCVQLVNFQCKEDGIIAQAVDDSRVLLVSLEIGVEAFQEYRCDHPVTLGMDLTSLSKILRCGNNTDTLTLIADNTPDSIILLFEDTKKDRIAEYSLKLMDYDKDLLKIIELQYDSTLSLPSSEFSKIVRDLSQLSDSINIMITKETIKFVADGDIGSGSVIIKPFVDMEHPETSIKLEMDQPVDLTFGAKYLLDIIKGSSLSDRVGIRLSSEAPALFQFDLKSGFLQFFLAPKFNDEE

[3] = biological target: T3, pol30-79 (yeast, UniProt P15873 1-258, IDCL DIDADFLKIEEL to DIDADFAKAEEL); experiment: as above; conditions: partners not purified
T3 construct: PCNA (POL30), yeast; the changes are then L126A and I128A; also called PCNA79; source: yeast two-hybrid fusion (pAD-GAL4, strain YRG2)
T3 sequence: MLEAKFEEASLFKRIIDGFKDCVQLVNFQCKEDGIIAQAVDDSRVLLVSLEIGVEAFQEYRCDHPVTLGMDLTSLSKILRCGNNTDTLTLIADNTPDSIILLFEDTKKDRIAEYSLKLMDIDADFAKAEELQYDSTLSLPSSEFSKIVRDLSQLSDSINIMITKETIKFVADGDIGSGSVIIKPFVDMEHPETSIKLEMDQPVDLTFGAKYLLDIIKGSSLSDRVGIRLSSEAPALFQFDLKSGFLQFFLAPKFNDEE

[4] = biological target: T4, pol30-Rad30E2 (yeast, UniProt P15873 1-258, IDCL DIDADFLKIEEL to DDDWDFLKILEL); experiment: as above; conditions: partners not purified
T4 construct: PCNA (POL30), yeast; source: yeast two-hybrid fusion (pAD-GAL4, strain YRG2)
T4 sequence: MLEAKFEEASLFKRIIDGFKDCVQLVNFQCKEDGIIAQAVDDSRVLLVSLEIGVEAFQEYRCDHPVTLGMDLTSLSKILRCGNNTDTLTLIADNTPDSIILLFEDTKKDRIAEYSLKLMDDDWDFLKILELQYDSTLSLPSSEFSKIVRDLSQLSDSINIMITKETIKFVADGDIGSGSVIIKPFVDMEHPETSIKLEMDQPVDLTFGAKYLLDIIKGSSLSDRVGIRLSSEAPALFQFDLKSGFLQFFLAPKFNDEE

[5] = biological target: T5, pol30-Pol32E5 (yeast, UniProt P15873 1-258, IDCL DIDADFLKIEEL to DADNDFLKISEL); experiment: as above; conditions: partners not purified
T5 construct: PCNA (POL30), yeast; source: yeast two-hybrid fusion (pAD-GAL4, strain YRG2)
T5 sequence: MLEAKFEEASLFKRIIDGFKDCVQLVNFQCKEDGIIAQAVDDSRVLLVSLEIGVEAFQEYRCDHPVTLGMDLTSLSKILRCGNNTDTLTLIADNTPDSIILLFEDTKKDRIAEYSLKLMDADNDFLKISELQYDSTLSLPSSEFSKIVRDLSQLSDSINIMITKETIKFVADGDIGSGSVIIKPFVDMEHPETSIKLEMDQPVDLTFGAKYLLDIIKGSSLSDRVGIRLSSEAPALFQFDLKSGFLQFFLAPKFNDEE

[6] = biological target: T6, pol30-Pol32E9 (yeast, UniProt P15873 1-258, IDCL DIDADFLKIEEL to DNDVDSLKIIEL); experiment: as above; conditions: partners not purified
T6 construct: PCNA (POL30), yeast; source: yeast two-hybrid fusion (pAD-GAL4, strain YRG2)
T6 sequence: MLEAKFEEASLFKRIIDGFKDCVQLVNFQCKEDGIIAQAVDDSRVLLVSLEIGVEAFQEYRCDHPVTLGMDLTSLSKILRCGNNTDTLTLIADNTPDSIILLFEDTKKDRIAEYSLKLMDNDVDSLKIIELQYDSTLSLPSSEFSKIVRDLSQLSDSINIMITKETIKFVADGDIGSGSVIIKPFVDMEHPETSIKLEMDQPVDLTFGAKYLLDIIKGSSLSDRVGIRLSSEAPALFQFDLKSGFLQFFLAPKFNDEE

[7] = biological target: T7, pol30-Rad30E9, 6×Histidine-tagged (yeast, UniProt P15873 1-258, IDCL DIDADFLKIEEL to DNDWDFLKIDEL); experiment: SPR; ProteOn XPR36; WT or mutant PCNA (0.4 to 5.2 fmol) immobilised on a GLM chip by carbodiimide-activated succinimide coupling; PIP peptides 5–5,000 nM at 30 µl/min; peptide buffer 150 mM NaCl, 1 mM EDTA, 0.01% Tween-80, 30 mM Hepes, pH 7.5; conditions: both partners purified
T7 construct: PCNA (POL30), yeast, in pET28; also called Pol30-Rad30E9p; source: E. coli BL21, in cleared crude lysate (ELISA); purified by Ni-NTA (SPR)
T7 sequence: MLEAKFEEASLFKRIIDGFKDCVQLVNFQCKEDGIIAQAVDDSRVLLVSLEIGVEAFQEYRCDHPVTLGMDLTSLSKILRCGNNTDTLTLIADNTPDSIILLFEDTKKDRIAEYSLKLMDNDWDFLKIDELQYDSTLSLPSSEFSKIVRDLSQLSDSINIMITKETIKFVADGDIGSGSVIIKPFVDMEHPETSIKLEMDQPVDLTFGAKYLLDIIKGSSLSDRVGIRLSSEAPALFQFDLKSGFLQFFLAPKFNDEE

[8] = biological target: T8, pol30-Pol32E9, 6×Histidine-tagged (yeast, UniProt P15873 1-258, IDCL DIDADFLKIEEL to DNDVDSLKIIEL); experiment: as above; conditions: both partners purified
T8 construct: PCNA (POL30), yeast, in pET28; source: E. coli BL21, in cleared crude lysate (ELISA); purified by Ni-NTA (SPR)
T8 sequence: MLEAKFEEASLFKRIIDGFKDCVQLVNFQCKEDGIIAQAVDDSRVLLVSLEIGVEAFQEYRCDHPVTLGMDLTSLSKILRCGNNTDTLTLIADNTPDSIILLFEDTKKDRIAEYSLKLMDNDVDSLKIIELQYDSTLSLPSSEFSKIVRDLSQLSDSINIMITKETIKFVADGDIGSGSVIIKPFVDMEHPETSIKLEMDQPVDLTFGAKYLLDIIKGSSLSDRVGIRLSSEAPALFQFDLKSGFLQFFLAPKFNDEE

[9] = biological target: T9, pol30-Ung1E3 (yeast, UniProt P15873 1-258, IDCL DIDADFLKIEEL to DFDYDELKIEEL); experiment: two-hybrid; quantitative Y2H: generation time of the YRG2 strains in liquid SC-Leu-Trp-His, given relative to cells expressing WT PCNA; average of at least 3 experiments; conditions: partners not purified
T9 construct: PCNA (POL30), yeast; source: yeast two-hybrid fusion (pAD-GAL4, strain YRG2)
T9 sequence: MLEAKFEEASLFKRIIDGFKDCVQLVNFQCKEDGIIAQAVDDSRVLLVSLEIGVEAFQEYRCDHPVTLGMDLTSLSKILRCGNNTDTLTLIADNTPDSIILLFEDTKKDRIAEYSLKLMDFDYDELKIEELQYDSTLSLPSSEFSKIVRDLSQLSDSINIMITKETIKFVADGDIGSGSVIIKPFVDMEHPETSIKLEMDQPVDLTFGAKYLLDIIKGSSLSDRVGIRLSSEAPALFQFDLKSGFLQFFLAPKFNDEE

B1: Msh6 (natural protein, yeast, UniProt Q03834 1-1242, looked up)
chain: MAPATPKTSKTAHFENGSTSSQKKMKQSSLLSFFSKQVPSGTPSKKVQKPTPATLENTATDKITKNPQGGKTGKLFVDVDEDNDLTIAEETVSTVRSDIMHSQEPQSDTMLNSNTTEPKSTTTDEDLSSSQSRRNHKRRVNYAESDDDDSDTTFTAKRKKGKVVDSESDEDEYLPDKNDGDEDDDIADDKEDIKGELAEDSGDDDDLISLAETTSKKKFSYNTSHSSSPFTRNISRDNSKKKSRPNQAPSRSYNPSHSQPSATSKSSKFNKQNEERYQWLVDERDAQRRPKSDPEYDPRTLYIPSSAWNKFTPFEKQYWEIKSKMWDCIVFFKKGKFFELYEKDALLANALFDLKIAGGGRANMQLAGIPEMSFEYWAAQFIQMGYKVAKVDQRESMLAKEMREGSKGIVKRELQCILTSGTLTDGDMLHSDLATFCLAIREEPGNFYNETQLDSSTIVQKLNTKIFGAAFIDTATGELQMLEFEDDSECTKLDTLMSQVRPMEVVMERNNLSTLANKIVKFNSAPNAIFNEVKAGEEFYDCDKTYAEIISSEYFSTEEDWPEVLKSYYDTGKKVGFSAFGGLLYYLKWLKLDKNLISMKNIKEYDFVKSQHSMVLDGITLQNLEIFSNSFDGSDKGTLFKLFNRAITPMGKRMMKKWLMHPLLRKNDIESRLDSVDSLLQDITLREQLEITFSKLPDLERMLARIHSRTIKVKDFEKVITAFETIIELQDSLKNNDLKGDVSKYISSFPEGLVEAVKSWTNAFERQKAINENIIVPQRGFDIEFDKSMDRIQELEDELMEILMTYRKQFKCSNIQYKDSGKEIYTIEIPISATKNVPSNWVQMAANKTYKRYYSDEVRALARSMAEAKEIHKTLEEDLKNRLCQKFDAHYNTIWMPTIQAISNIDCLLAITRTSEYLGAPSCRPTIVDEVDSKTNTQLNGFLKFKSLRHPCFNLGATTAKDFIPNDIELGKEQPRLGLLTGANAAGKSTILRMACIAVIMAQMGCYVPCESAVLTPIDRIMTRLGANDNIMQGKSTFFVELAETKKILDMATNRSLLVVDELGRGGSSSDGFAIAESVLHHVATHIQSLGFFATHYGTLASSFKHHPQVRPLKMSILVDEATRNVTFLYKMLEGQSEGSFGMHVASMCGISKEIIDNAQIAADNLEHTSRLVKERDLAANNLNGEVVSVPGGLQSDFVRIAYGDGLKNTKLGSGEGVLNYDWNIKRNVLKSLFSIIDDLQS
notes: Msh6 (mismatch repair), yeast; also called pBD-Msh6; source: yeast two-hybrid fusion (pBD-GAL4, strain YRG2)
fold change in affinity relative to WT PCNA (Y2H generation time) [1]: 1.4 fold | fold change in affinity relative to WT PCNA (Y2H generation time) [2]: 1.4 fold | fold change in affinity relative to WT PCNA (Y2H generation time) [3]: 0.4 fold

B2: Pol32 (natural protein, yeast, UniProt P47110 1-350, looked up)
chain: MDQKASYFINEKLFTEVKPVLFTDLIHHLKIGPSMAKKLMFDYYKQTTNAKYNCVVICCYKDQTIKIIHDLSNIPQQDSIIDCFIYAFNPMDSFIPYYDIIDQKDCLTIKNSYELKVSESSKIIERTKTLEEKSKPLVRPTARSKTTPEETTGRKSKSKDMGLRSTALLAKMKKDRDDKETSRQNELRKRKEENLQKINKQNPEREAQMKELNNLFVEDDLDTEEVNGGSKPNSPKETDSNDKDKNNDDLEDLLETTAEDSLMDVPKIQQTKPSETEHSKEPKSEEEPSSFIDEDGYIVTKRPATSTPPRKPSPVVKRALSSSKKQETPSSNKRLKKQGTLESFFKRKAK
notes: Pol32 (DNA polymerase subunit), yeast; also called pBD-Pol32; source: yeast two-hybrid fusion (pBD-GAL4, strain YRG2)
fold change in affinity relative to WT PCNA (Y2H generation time) [4]: 0.4 fold | fold change in affinity relative to WT PCNA (Y2H generation time) [5]: 1.5 fold | fold change in affinity relative to WT PCNA (Y2H generation time) [6]: 1.3 fold | fold change in affinity relative to WT PCNA (Y2H generation time) [3]: 0.3 fold

QKKQVTSSKNILSFFTRKK (also: biotinylated, site not given here) [PIP peptide derived from Rad30]
fold increase in binding affinity relative to WT PCNA (SPR) [7]: 8.5 fold

QGTLESFFKRKAK (also: biotinylated, site not given here) [PIP peptide derived from Pol32]
fold increase in binding affinity relative to WT PCNA (SPR) [8]: 2 fold

B3: Ung1 (natural protein, yeast, UniProt P12887 1-359, looked up)
chain: MWCMRRLPTNSVMTVARKRKQTTIEDFFGTKKSTNEAPNKKGKSGATFMTITNGAAIKTETKAVAKEANTDKYPANSNAKDVYSKNLSSNLRTLLSLELETIDDSWFPHLMDEFKKPYFVKLKQFVTKEQADHTVFPPAKDIYSWTRLTPFNKVKVVIIGQDPYHNFNQAHGLAFSVKPPTPAPPSLKNIYKELKQEYPDFVEDNKVGDLTHWASQGVLLLNTSLTVRAHNANSHSKHGWETFTKRVVQLLIQDREADGKSLVFLLWGNNAIKLVESLLGSTSVGSGSKYPNIMVMKSVHPSPLSASRGFFGTNHFKMINDWLYNTRGEKMIDWSVVPGTSLREVQEANARLESESKDP
notes: Ung1 (base excision repair), yeast; also called pBD-Ung1; source: yeast two-hybrid fusion (pBD-GAL4, strain YRG2)
fold change in affinity relative to WT PCNA (Y2H generation time) [3]: 0.3 fold | fold change in affinity relative to WT PCNA (Y2H generation time) [9]: 1.3 fold
